Laboratory results: the supplement of paper PMC10567573
± gives the standard deviation.

Experiment: protein stability index of a GFP-peptide fusion (GPS, HEK-293T) (PSI 1-6); higher = more stable
[1] = treatment: DMSO, c terminus: a fixed tail appended
[2] = treatment: MLN4924 1 uM, 8 h, c terminus: a fixed tail appended
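Note: 24-mer peptide tiles fused after GFP, lentivirally expressed, FACS-sorted into six equal bins by GFP/DsRed ratio, decoded by Illumina sequencing, PSI is the read-weighted mean bin number.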

Sequence | protein stability index [1] | protein stability index [2] | protein stability index (treatment: DMSO, c terminus: native) | protein stability index (treatment: MLN4924 1 uM, 8 h, c terminus: native)
LRGLCANTVLRFLDLKGNNLRAAG [LRRC45] | 2.3 ± 0.24 | 2.24 ± 0.16 | – | –
HQEGAKMAVRLAGGLQKMVALLNK [CTNNB1] | 2.4 ± 0.11 | 2.42 ± 0.27 | – | –
AVEAELKSSTVGLVTLNDMKAKQE [FAM50A] | 5.21 ± 0.2 | 5.25 ± 0.13 | – | –
QVAPLTHVFQRQKSELSDGIAILV [TRIM55] | 2.26 ± 0.49 | 2.26 ± 0.22 | – | –
LETQAQVCQALAQVDGGANFSVDR [CPOX] | 4.85 ± 0.18 | 4.96 ± 0.14 | – | –
METFDPTELPELLKLYYRRLFPYS [PRIM1] | 2.43 ± 0.51 | 2.38 ± 0.35 | – | –
KVTGVEYHNAGTQTVPKRIPERLS [IQUB] | 4.22 ± 0.22 | 4.23 ± 0.32 | – | –
KEVVKKHSQFIGYPITLYLEKERE [HSP90AB1] | – | 3.32 ± 0.24 | – | –
VGGTIRTCQKFLIQYNRRQLLILL [POP5] | 2.96 ± 0.47 | 2.64 ± 0.67 | – | –
ALNQEFLATRSNEKQELQELNDRF [PRPH] | 4.24 ± 0.19 | 4.38 ± 0.22 | – | –
HGLAFWFDVAFIGSIMTVWLSTAP [CARM1] | 2.78 ± 0.33 | 3.1 ± 0.53 | – | –
RSLLRLRATRAGAAEEPGVRGLLA [C2CD2L] | 3.17 ± 0.43 | 3.44 ± 0.18 | – | –
PAVENKQQIGDAIRMIVRGTLGSC [PLK2] | 3.03 ± 0.32 | 3.03 ± 0.19 | – | –
PQVWREAATQVFFALGLGFGGVIA [SLC6A17] | 3.78 ± 0.85 | 3.4 ± 0.82 | – | –
LDRVRGGRQKYKRRPEVDPLPFPG [ESRRA] | 3.68 ± 0.36 | 3.92 ± 0.41 | – | –
SQAPDGRRKSEAGSGAASSSGEDK [CDC25B] | 5.65 ± 0.18 | 5.58 ± 0.35 | – | –
ANYVIVRAYQYTTLTSVQLLDCFG [SLC35F2] | 3.21 ± 0.26 | 3.03 ± 0.49 | – | –
LDQLDESLRDKVLQLQKGSDTEAQ [INTS3] | 5.46 ± 0.12 | 5.31 ± 0.21 | – | –
RLLKTLETSRSHDLEAVVPQNGSE [ATP23] | 4 ± 0.23 | 4.09 ± 0.19 | – | –
YSLLYLEHKGWYSWVLSMLYGFLL [CLPTM1] | 2.18 ± 0.37 | 2.26 ± 0.49 | – | –
RNLGSINTELQDVQRIMVANIEEV [SEC22B] | 4.1 ± 0.15 | 4.05 ± 0.044 | – | –
PVHLVDKLPLPSTLRSHLKSFSMA [RAB40A] | 2.6 ± 0.085 | 2.63 ± 0.19 | – | –
SQAIDLLYWRDIKQTGIVFGSFLL [RTN1] | 3.03 ± 0.81 | 3.01 ± 0.47 | – | –

Sequence | protein stability index [1] | protein stability index [2] | protein stability index (treatment: DMSO, c terminus: native) | protein stability index (treatment: MLN4924 1 uM, 8 h, c terminus: native)
STPSDNIVRRFLNICENTEGAIAV [CDC14A] | 3.66 ± 0.39 | 3.66 ± 0.14 | – | –
TIYGLHALEQGGLRAATMSAVEAA [PYCR3] | 2.85 ± 0.65 | 3.22 ± 0.8 | – | –
MGLYDGMEHLIYGEPRKLLTQDWV [MAGEA10] | 2.25 ± 0.31 | 2.28 ± 0.51 | – | –
INYNGIFSLKQEETLDYGKNYNYG [NEUROD6] | 2.49 ± 0.22 | 2.53 ± 0.22 | – | –
HEMREQHDAQVRLYKEELEQTYHA [LMNB1] | 4.08 ± 0.38 | 4.27 ± 0.48 | – | –
VGVMLPHNTTEAPGPHSAKQDSYE [ZC2HC1C] | 5.03 ± 0.27 | 5.215 ± 0.033 | – | –
VAEETPDGAPALCPSPEALSPEPP [PRKX] | 5.48 ± 0.21 | 5.41 ± 0.31 | – | –
TLEFENVQVLTMGNDTSPSEGTNL [HNF4A] | 4.69 ± 0.18 | 4.52 ± 0.39 | – | –
SNSSQDSLHKGAKRKGIKSSIGRL [PPFIA4] | 4.17 ± 0.22 | 4.22 ± 0.16 | – | –
FVDILESDLKDDDAVPPGMESLIS [CDC25B] | 3.55 ± 0.64 | 3.94 ± 0.43 | – | –
DLAGLGSETPKSQVGTLLFRSRSR [CDC25B] | 3.83 ± 0.35 | 4.11 ± 0.35 | – | –
ADLLLLTDLKTLCCEFLEGCIAAE [GAN] | 2.15 ± 0.42 | 2.16 ± 0.58 | – | –
AVFRFWAGGEKGPQAFPMSRLWDS [DNAAF3] | 2.14 ± 0.26 | 2.18 ± 0.22 | – | –
LPFERLAFVLSSNSLKHCTELELF [KLHL13] | 2.73 ± 0.6 | 2.76 ± 0.62 | – | –
RSQMQGPRTRARLGANEVLLVVGG [KLHL12] | 2.39 ± 0.39 | 2.62 ± 0.37 | – | –
EGYQALYHAVVEPMLWNPSGTPKR [C22orf31] | 2.39 ± 0.28 | 2.79 ± 0.61 | – | –
GKSLLLMTRNDVLTGLQLKLGPAL [SAMD13] | 2.27 ± 0.4 | 2.26 ± 0.28 | – | –
FVLGKGRGAAAAGGPQRIPAHRFV [BTBD1] | 2.3 ± 0.25 | 2.71 ± 0.31 | – | –
PSPPTSPPWGLGPGAGDPAPGIGP [MYCL] | 4.7 ± 0.18 | 4.72 ± 0.069 | – | –
NPGTDAVAQTSLEEFNVLEMEVMR [FATE1] | 4.71 ± 0.18 | 4.68 ± 0.13 | – | –
PAITATLLDFMCRIIPNFYPPLEG [INTS3] | 3.07 ± 0.13 | 3.1 ± 0.32 | – | –
SYNACGVLSHIMFDGPEAWGVCEP [ZER1] | 2.13 ± 0.45 | 2.44 ± 0.41 | – | –
MNPYKIDIGAVYSHRPNQHNTVKL [PRIM1] | 2.79 ± 0.06 | 2.43 ± 0.37 | – | –

Sequence | protein stability index [1] | protein stability index [2] | protein stability index (treatment: DMSO, c terminus: native) | protein stability index (treatment: MLN4924 1 uM, 8 h, c terminus: native)
EVGSMKIQSGAWVCYQYPGYRGYQ [CRYBA1] | 2.08 ± 0.24 | 2.32 ± 0.11 | – | –
EADVNGLRRVLDELTLARTDLEMQ [KRT16] | 4 ± 0.35 | 4.07 ± 0.094 | – | –
GTGTGPEDGRPSLGSPYGQPPRFP [PDLIM4] | 4.37 ± 0.21 | 4.53 ± 0.22 | – | –
GLSGGALSPLRAASDPLLSSVSPA [TFE3] | 3.91 ± 0.32 | 3.91 ± 0.099 | – | –
DERIFSLTRRLAHGEELRVSARSR [HAGHL] | 4.1 ± 0.33 | 4.12 ± 0.32 | – | –
IGCVFAELLTGQPLWPGKSDVDQL [CDKL4] | 2.09 ± 0.32 | 2.15 ± 0.57 | – | –
AESFPGSQVMGSGRGSLSSGGQTS [PLEKHN1] | 4.81 ± 0.2 | 4.88 ± 0.25 | – | –
ALEFQPQLVLVAAGFDALQGDPKG [HDAC6] | 2.86 ± 0.28 | 3.11 ± 0.47 | – | –
LLIVKLEEDCAWSQELPPPDPGPS [ZNF263] | 2.33 ± 0.29 | 2.42 ± 0.29 | – | –
SHKERFDPSGKGKGKAGRVDLVDE [TPPP] | 5.04 ± 0.46 | 5.24 ± 0.2 | – | –
APSPQEALVRLRETEEMLGKKQEY [CHMP4C] | 5.26 ± 0.25 | 5.12 ± 0.096 | – | –
MASGPGSQEREGLLIVKLEEDCAW [ZNF263] | 2.44 ± 0.36 | 2.28 ± 0.47 | – | –
ICQGIRGLWGTTLTENTAENRELY [PKD2L1] | 3.03 ± 0.19 | 3.37 ± 0.21 | – | –
MALLRKINQVLLFLLIVTLCVILY [GLT8D2] | 2.12 ± 0.27 | 2.11 ± 0.18 | – | –
NLLLQPTTNPHTSASHRPCVNGDV [SMG5] | 3.48 ± 0.23 | 3.54 ± 0.43 | – | –
LRREKPSEEMVKMVLSRPCHPDDQ [INTS3] | 4.61 ± 0.12 | 4.69 ± 0.15 | – | –
TEPEQRELKTKLTKLEAEIVTLRH [TPD52L3] | 4.23 ± 0.15 | 4.35 ± 0.26 | – | –
KTCNPPDAGPMVVHCSAGVGRTGC [PTPRD] | 3.5 ± 0.32 | 3.5 ± 0.34 | – | –
GTLVQLLGSDDINVVTCAAGILSN [CTNNB1] | 2.32 ± 0.52 | 2.28 ± 0.12 | – | –
LWEKLAKQGELPREVRRAQARLLN [NOP53] | 2.78 ± 0.12 | 2.82 ± 0.67 | – | –
LFEAGDATLASDLQDWASVGAFL [FOXJ1] | – | – | 3.59 ± 0.15 | 3.49 ± 0.34
SMQAVLDYLYTKQLSPNLDLDPLE [RHOBTB1] | 2.47 ± 0.37 | 2.19 ± 0.47 | – | –
LNLTEGFAVLHWKPPQNPVDTYDV [TNXB] | 2.5 ± 0.66 | 2.69 ± 0.45 | – | –

Sequence | protein stability index [1] | protein stability index [2] | protein stability index (treatment: DMSO, c terminus: native) | protein stability index (treatment: MLN4924 1 uM, 8 h, c terminus: native)
QKVTCFYQPAPYFAAEARYPIYVI [TENT5D] | 2.89 ± 0.4 | 2.54 ± 0.49 | – | –
TWVTVKNGSGDMIFEGNSEKEIPV [CPXM2] | 4 ± 0.2 | 3.9 ± 0.081 | – | –
QDCGFEHLVPVIEMWADQLTSLKD [CEP70] | 2.76 ± 0.39 | 2.94 ± 0.53 | – | –
DPTNWLRCYYYEDTISTIKSVAWE [NCF4] | 2.12 ± 0.47 | 2.47 ± 0.13 | – | –
DLPEVESLPRDRVLGFLIENFKGL [VPS39] | 3.27 ± 0.59 | 3.19 ± 0.34 | – | –
TCCESTQRSVSDVASGSTPAPALC [IRX6] | 4.48 ± 0.067 | 4.51 ± 0.11 | – | –
IVYATEKKQTKVEFPEARIFEETL [KCTD13] | 3 ± 0.11 | 2.85 ± 0.35 | – | –
HSGTKRDPKEDVFQQNHLFWLQNS [PHTF1] | 3.42 ± 0.25 | 3.33 ± 0.26 | – | –
GIVEAMVVCRQLGLGFASNAFQET [LOXL2] | – | 2.393 ± 0.002 | – | –
LGPVPREDQAEAWGCSCCPPETKH [TSPAN10] | 4.91 ± 0.083 | 4.97 ± 0.32 | – | –
IKYFRVDFYEAMDDYTSAIEVQPN [TTC32] | 2.48 ± 0.51 | 2.1 ± 0.46 | – | –
FQFASIDVAGNLDYKALSYVITHG [MYL5] | 2.51 ± 0.47 | 2.29 ± 0.31 | – | –
PNHLGGGAVVLGAESHASKDVAID [STX5] | 5.1 ± 0.37 | 5.15 ± 0.17 | – | –
EQQRKLETYLQNHFAEEERSKYDY [TENT5C] | 4.35 ± 0.16 | 4.47 ± 0.099 | – | –
KFGVVQTSVEECSQKGCLALSLLE [CLCN6] | 2.81 ± 0.071 | 2.99 ± 0.22 | – | –
CGQPCSQKSGLIRHQKIHSGEKPY [ZNF649] | 3.02 ± 0.5 | 3.21 ± 0.28 | – | –
GSSGGQQPSGMKEGVKRYEQEHAA [CHCHD6] | 5 ± 0.054 | 5.47 ± 0.21 | – | –
NSFSLNSSISSSARRTTRSEPIRR [MAP2] | 4.46 ± 0.27 | 4.53 ± 0.13 | – | –
KVEEVSLPEQVDIIISEPMGYMLF [CARM1] | 2.88 ± 0.49 | 2.54 ± 0.35 | – | –
NEVRRGSPVLLGWVEQAYADKCVC [TIAF1] | 2.64 ± 0.087 | 2.88 ± 0.27 | – | –
